From patent US20140056903A1 (Regeneron, published 2014)
Changes are numbered by the printed parent chain. Names and notes keep the numbering of the source. Each block holds one binder with its values, some of them ahead of it.

Key:
[1] = biological target: T1, human GFRα3 expressed with a C-terminal myc-myc-hexahistidine tag (human, UniProt O60609 32-374, biotinylated (sites not given) in ELISA format 2 and in the Octet cross-competition; not in SPR); experiment: blocking ELISA 2, biotin-hGFRα3-mmH to coated hARTEMIN-mmH + hRET-10His
T1 construct: also called hGFRα3-mmh; hGFRα3-mmH
Experimental: The equilibrated sample solutions were then transferred to the hARTEMIN-mmH-coated plate. […] Absorbance was recorded at 450 nm on a Victor X5 plate reader (Perkin Elmer) to determine the amount of free hGFRα3-hFc in the pre-equilibrated hGFRα3-hFc-antibody solutions that was able to bind to the plate coated with hARTEMIN-mmH. IC₅₀ values, defined as the concentration of antibody required to reduce the signal from a constant concentration of hGFRα3-hFc by 50%, were calculated from the data using Prism software from GraphPad. The absorbance measured at the constant amount of 120 pM hGFRα3-hFc in the absence of anti-GFRα3 antibody is defined as 0% blocking and the absorbance with no added hGFRα3-hFc is defined as 100% blocking. The observed absorbance in the wells containing the highest antibody concentration was used to calculate the maximum blocking percent shown in the table.
In the second ELISA format, the plates, samples and data were processed similarly as for the first format except both hARTEMIN-mmH and human RET with a C-terminal 10 histidine tag (hRET-10His; R&D Systems, #1168-CR/CF) were coated for the blocking ELISA experiment. The 96-well microtiter plates were coated with a mixture of 1.2 ug/ml hARTEMIN-mmH and 6.9 ug/ml hRET-10His proteins in PBS overnight at 4° C. and then blocked with a solution of 0.5% (w/v) BSA. A constant amount of biotinylated human GFRα3 with a C-terminal myc-myc-hexahistidine tag (biotin-hGFRα3-mmH; SEQ ID:370) at 1 nM was pre-mixed with varied amounts of anti-GFRα3 antibodies, ranging from 0 to ˜100 nM in serial dilutions, followed by a 1 hour incubation at RT to allow antibody-biotin-hGFRα3-mmH binding to reach equilibrium. The equilibrated samples were then transferred to the coated plate. After 1 hour of binding, the plate was washed, then the bound biotin-hGFRα3-mmH was detected using HRP conjugated streptavidin (Pierce, #N200), and colorimetric signals were developed using TMB HRP substrates.

[2] = biological target: T1, human GFRα3 expressed with a C-terminal …; experiment: Octet cross-competition; biotin-hGFRα3-mmH pre-saturated with first antibody H4H2355S
Experimental: (§1) A cross-competition assay was conducted to assess the ability of select antibodies to compete with one another for binding to human GFRα3 using an Octet RED384 biosensor (Fortebio Inc.). The entire experiment was performed at 25° C. with the flow rate of 1000 rpm in Octet HBST buffer (0.01 M HEPES pH7.4, 0.15M NaCl, 3 mM EDTA, 0.05% v/v Surfactant P20, 0.1 mg/mL BSA). To assess whether 2 antibodies were able to compete with one another for binding to their respective epitopes on biotinylated recombinant human GFRα3 expressed with a C-terminal myc-myc-hexahistidine tag (biotin-hGFRα3-mmH; SEQ ID:370), around ˜1.2 nm of biotin-hGFRα3-mmH was first captured onto streptavidin-coated Octet sensor tips (Fortebio Inc, #18-5019) by submerging the tips for 1 minute into a 10 μg/mL solution of biotin-hGFRα3-mmH. The antigen coated sensor tips were then placed into wells containing 25 μg/mL solution of a first anti-GFRα3 monoclonal antibody for 4 minutes to saturate the biotin-hGFRα3-mmH surface. The sensor tips were then subsequently dipped into wells containing 25 μ/mL solution of a second anti-GFRα3 monoclonal antibody. The sensor tips were washed in Octet HBST buffer in between every step of the experiment. The real-time binding response was monitored during the course of the experiment and the binding response at the end of every step was recorded as shown in FIG. 9. The response of mAb-2 binding to biotin-hGFRα3-mmH pre-complexed with the first antibody was compared and competitive/non-competitive behavior of different anti-GFRα3 monoclonal antibodies was determined.

[3] = biological target: T1, human GFRα3 expressed with a C-terminal …; experiment: Octet RED384; 25 µg/mL first antibody on streptavidin-captured biotin-hGFRα3-mmH
Experimental: as §1

[4] = biological target: T1, human GFRα3 expressed with a C-terminal …; experiment: Octet cross-competition; biotin-hGFRα3-mmH pre-saturated with first antibody H4H2291S
Experimental: as §1

B2: H4H2341S (antibody, human IgG4, V domains shown)
VH: EVQLVESGAEVKKSGSSVKVSCKASGGTFSRYAISWVRQAPGQGLEWMGGIIPLFGTLNYAQKFQGRVTLTTDESTSTAYMELSSLRSEDTAVYYCAVFYYGSGSYRNWFDPWGQGTLVTVSS
VL: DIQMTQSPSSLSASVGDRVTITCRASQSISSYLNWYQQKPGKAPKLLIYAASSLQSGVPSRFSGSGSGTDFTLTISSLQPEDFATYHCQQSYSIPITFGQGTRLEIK
notes: human IgG4 Fc (H4H)
- % max blocking [1]: 98%
- IC50 [1]: 1.62 nM

B5: H4H2344S (antibody, human IgG4, V domains shown)
VH: EVQLVESGGGVVQPGRSLRLSCAASGFSFSDYVMHWVRQAPGKGLEWVASIWFDGSNEFYADSVKGRFTISRDNSKNTLFLQMNSLRAEDTAVYYCAKKGVLVATSAFDIWGQGTMVTVSS
VL: DIQMTQSPSSLSASVGDRVTITCRASQSINNYLNWYHQKPGKAPKLLIYAASSLQSGVPSRFSGSGSGTDYTLTISSLQPEDFGNYYCQQSYRTSMYTFGQGTKVEIK
notes: human IgG4 Fc (H4H)
- % max blocking [1]: 100%
- IC50 [1]: 0.459 nM

B9: H4H2291S (antibody, human IgG4, V domains shown)
VH: EVQLVESGGGLVQPGESLRLSCAASGFTFSNYAMSWVRQAPGKGLEWVSVISGSGGSTYYADSVKGRFTMSRDNSKNTLYLQMNSLRAEDTAVYYCAKPPSRAARYFNYGMDVWGQGTTVTVSS
VL: AIRMTQSPSSVSASVGDRVTITCRASQGISSWLAWYQQKPGKAPKLLIYAASSLQSGVPSRFSGSGSGTDFTLTISSLQPEDFATYYCQQANSFPFTFGGGTKVEIK
notes: human IgG4 Fc (H4H)
- binding response of second antibody (nm) [2]: 0.31 nm
- Amount of Antibody 1 bound (nm) [3]: 2.89 nm
- binding response of second antibody (nm) [4]: 0.05 nm

B11: H4H2296S (antibody, human IgG4, V domains shown)
VH: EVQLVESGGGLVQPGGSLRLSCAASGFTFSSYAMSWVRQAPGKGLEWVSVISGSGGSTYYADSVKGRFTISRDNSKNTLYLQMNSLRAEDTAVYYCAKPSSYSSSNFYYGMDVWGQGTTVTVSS
VL: B9 VL with A1D, R3V, Q55R, S76T, Q90H, A91T, G100P
notes: human IgG4 Fc (H4H)
- binding response of second antibody (nm) [2]: 0.18 nm
- Amount of Antibody 1 bound (nm) [3]: 2.88 nm
- binding response of second antibody (nm) [4]: -0.01 nm

B13: H4H2294S (antibody, human IgG4, V domains shown)
VH: EVQLVESGGGLVQPGGSLRLSCAASGFTFSSYAMSWVRQAPGKGLEWVSVISGSGGSTYYADAVKGRFTISRDNSKHTLYLQMNSLRAEDTAVYYCTKPSSYSSSNFYYGMDVWGQGSTVTVSS
VL: B9 VL with A1D, R3Q, M4L, A91T, T97P, G100P, E105D
notes: human IgG4 Fc (H4H)
- % max blocking [1]: 95%
- IC50 [1]: 0.952 nM
- binding response of second antibody (nm) [2]: 0.16 nm
- Amount of Antibody 1 bound (nm) [3]: 2.91 nm
- binding response of second antibody (nm) [4]: 0 nm

B15: H4H2236N3 (antibody, human IgG4, V domains shown)
VH: EVQLLESGGNLVQPGGSLRLSCAASGFTFSSYAMTWVRQAPGKGLEWVSTISGSGTSTYYADSVKGRFTISRDNSRDTVFLQMNSLRAEDTAVYYCSKPSALRFLHWLAMDVWGQGTLVTVSS
VL: DIQMTQSPSSLSAFVGDRVTITCRASQDIRNYLDWFQQKPGKAPKSLIYAASNLQSGVPSRFGGSGSGTDFTLTINSLQPEDFVTYYCQQYNSYPPTFGGGTKVEIK
notes: human IgG4 Fc (H4H)
- binding response of second antibody (nm) [2]: 0.18 nm
- Amount of Antibody 1 bound (nm) [3]: 2.64 nm
- binding response of second antibody (nm) [4]: 0.01 nm

Results, then the binder that gave them:

- % max blocking [1]: 97%
- IC50 [1]: 1.08 nM
- binding response of second antibody (nm) [2]: 0.06 nm
- Amount of Antibody 1 bound (nm) [3]: 2.69 nm
- binding response of second antibody (nm) [4]: -0.01 nm
B1: H4H2342P (antibody, human IgG4, V domains shown)
VH: EVQLLESGGGLVQPGGSLRLSCAASGFTFSTYAMSWVRQAPGKGLEWVSAIRGNGVNTYYGDSMKGRFTISRDNSKDTLYLQMNSLRAEDTAVYYCAKNKWELLVFEYWGQGTLVTVSS
VL: DIQMTQSPSSLSASVGDRVTITCRASQDISNYLAWYQQKPGKVPKLLIYAASTLQSGVPFRFSGSGSGTDFTLTISSLQPEDVATYYCQKYNSAPPFGPGTKVDIK
notes: human IgG4 Fc (H4H)

- binding response of second antibody (nm) [2]: 0.07 nm
- Amount of Antibody 1 bound (nm) [3]: 2.73 nm
- binding response of second antibody (nm) [4]: 0 nm
B3: H4H2355S (antibody, human IgG4, V domains shown)
VH: EVQLVESGGGLVQPGGSLRLSCAASGFTFSSYAMSWVRQVPGKGLEWVSAISGSGDNTYNAESVKGRFTISRDNSKNMLYLQMNSLRAEDTAVYYCAKTKFSSSLLFDYWGQGTLVTVSS
VL: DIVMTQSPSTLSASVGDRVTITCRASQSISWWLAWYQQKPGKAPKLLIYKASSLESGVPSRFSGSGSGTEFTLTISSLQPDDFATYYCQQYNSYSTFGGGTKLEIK
notes: human IgG4 Fc (H4H)

- % max blocking [1]: 75%
- IC50 [1]: 14.6 nM
B4: H4H2345S (antibody, human IgG4, V domains shown)
VH: EVQLVESGGGLVRPGRSLRLSCAASGFTFDNYAMHWVRQVPGKGLEWVSGITWNSVSLGYADSVKGRFTISRDNAQNSLYLQMNSLRTVDTALYYCAKDRWGGSYYFDFWGQGTLVTVSS
VL: DIVMTQSPSSLSASVGDRVTITCRASQGISNYLAWYQQKPGKVPKLLIYSASTLQSGVPSRFSGSGSGTDFTLTISNLQPEDFATFFCQKYNSAPTFGGGTKVEIK
notes: human IgG4 Fc (H4H)

- % max blocking [1]: 99%
- IC50 [1]: 0.797 nM
B6: H4H2346S (antibody, human IgG4, V domains shown)
VH: B5 VH with E1Q
VL: B5 VL with D1E, Q3V
notes: human IgG4 Fc (H4H)

- % max blocking [1]: 97%
- IC50 [1]: 1.32 nM
B7: H4H2354S (antibody, human IgG4, V domains shown)
VH: B5 VH with E1Q
VL: B5 VL with M4L
notes: human IgG4 Fc (H4H); also called H4H2354S-1

- % max blocking [1]: 95%
- IC50 [1]: 7.38 nM
B8: H4H2293P (antibody, human IgG4, V domains shown)
VH: B5 VH with E1Q, F59L, D109H
VL: B5 VL with D1A, S28N, K45N, R93S, V105L
notes: human IgG4 Fc (H4H)

- % max blocking [1]: 86%
- IC50 [1]: 3.28 nM
- binding response of second antibody (nm) [2]: 0.16 nm
- Amount of Antibody 1 bound (nm) [3]: 2.82 nm
- binding response of second antibody (nm) [4]: 0 nm
B10: H4H2357S (antibody, human IgG4, V domains shown)
VH: EVQLVESGGGLVQPGGSLRLSCAASTFTFSSYAMTWVRQAPGKGLEWVSSISGSGDSTYYADSVKGRFTISRDNSKNTLFLQMNSLRAEDTAVYYCAKKDGPGRYYVRYGMDVWGQGTTVTVSS
VL: B9 VL with A1D, R3Q, A50T, A51T, F96L, E105D
notes: human IgG4 Fc (H4H)

- binding response of second antibody (nm) [2]: 0.2 nm
- Amount of Antibody 1 bound (nm) [3]: 2.83 nm
- binding response of second antibody (nm) [4]: 0 nm
B12: H4H2295S (antibody, human IgG4, V domains shown)
VH: B13 VH with P14A, A23V, V50A, Y60S, A63S, H77N, S118T
VL: B9 VL with A1D, R3Q, A50T, G68R, A91T, F94L, F96L, G100P
notes: human IgG4 Fc (H4H)

- % max blocking [1]: 100%
- IC50 [1]: 1.45 nM
B14: H4H2364S (antibody, human IgG4, V domains shown)
VH: B13 VH with V12E, A33V, A40V, A63S, H77N, T97A, Y108H, S118T
VL: B9 VL with A1D, R3Q, S9Y, K42R, Q90K, A91T, G100P
notes: human IgG4 Fc (H4H)

- % max blocking [1]: 99%
- IC50 [1]: 0.403 nM
- binding response of second antibody (nm) [2]: 1.95 nm
- Amount of Antibody 1 bound (nm) [3]: 2.32 nm
- binding response of second antibody (nm) [4]: 1.96 nm
B16: H4H2212N (antibody, human IgG4, V domains shown)
VH: EVQLLESGGGLVQPGGSLRLSCAASGFTFSSYAMSWVRQGPGKGLEWVSGISGSGGSTYNADSVKGRFTISRDNSKNTLYLQMNSLRAEDTAVYYCAKDSGTYWYYFDYWGQGILVTVSS
VL: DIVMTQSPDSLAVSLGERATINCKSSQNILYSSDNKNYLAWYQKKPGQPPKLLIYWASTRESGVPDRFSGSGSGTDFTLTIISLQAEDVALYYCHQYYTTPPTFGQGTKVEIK
notes: human IgG4 Fc (H4H)
